Consider one substance from paper PMC11315836.

Broadly, the Kd is the constant that tells how readily two partners part at equilibrium.

The target of the experiment is Recombinant hG-CSFR (granulocyte colony stimulating factor receptor) (human) (UniProt Q99062). Nature of the experiment: SPR. (In general: SPR reads the build-up and loss of mass on a sensor chip optically.)
UniProt Q99062, sequence (Q99062 25-836): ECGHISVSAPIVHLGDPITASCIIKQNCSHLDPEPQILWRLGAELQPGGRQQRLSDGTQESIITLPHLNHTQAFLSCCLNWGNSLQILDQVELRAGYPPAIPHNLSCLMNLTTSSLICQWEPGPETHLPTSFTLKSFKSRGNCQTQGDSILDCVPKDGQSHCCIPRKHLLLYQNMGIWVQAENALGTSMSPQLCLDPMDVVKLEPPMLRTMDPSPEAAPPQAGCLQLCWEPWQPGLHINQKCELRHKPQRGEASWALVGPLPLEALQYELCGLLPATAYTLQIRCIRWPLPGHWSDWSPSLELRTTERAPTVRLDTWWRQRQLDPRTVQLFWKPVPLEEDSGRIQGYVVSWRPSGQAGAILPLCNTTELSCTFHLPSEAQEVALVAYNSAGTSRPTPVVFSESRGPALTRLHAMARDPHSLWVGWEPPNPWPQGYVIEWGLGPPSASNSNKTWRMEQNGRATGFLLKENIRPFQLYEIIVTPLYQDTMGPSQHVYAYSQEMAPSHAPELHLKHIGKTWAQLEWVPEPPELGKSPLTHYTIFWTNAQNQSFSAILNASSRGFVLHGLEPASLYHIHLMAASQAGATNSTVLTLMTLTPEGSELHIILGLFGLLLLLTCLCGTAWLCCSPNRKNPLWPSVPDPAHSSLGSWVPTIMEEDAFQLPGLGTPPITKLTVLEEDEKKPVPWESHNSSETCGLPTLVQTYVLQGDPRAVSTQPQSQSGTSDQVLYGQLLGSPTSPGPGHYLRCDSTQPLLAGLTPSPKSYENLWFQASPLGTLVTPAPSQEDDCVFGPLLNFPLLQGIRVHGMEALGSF

As to “pegfilgrastim (Neulasta), reference product (from UniProt P09919-2 31-204) (ligand)”, the Kd was found to be 0.097 nM.
